Experimental data published in article PMC2586972 (Structure (London, England : 1993), 2008).
Blank lines part the entries; values can stand above or below the binder they belong to.

Assays:
[1] = molecular target: T1, N-terminally truncated Gα13(Q226L), GDP-bound (mouse, UniProt P27601 41-377, Q226L); assay: crystal structure
T1 sequence (looked up): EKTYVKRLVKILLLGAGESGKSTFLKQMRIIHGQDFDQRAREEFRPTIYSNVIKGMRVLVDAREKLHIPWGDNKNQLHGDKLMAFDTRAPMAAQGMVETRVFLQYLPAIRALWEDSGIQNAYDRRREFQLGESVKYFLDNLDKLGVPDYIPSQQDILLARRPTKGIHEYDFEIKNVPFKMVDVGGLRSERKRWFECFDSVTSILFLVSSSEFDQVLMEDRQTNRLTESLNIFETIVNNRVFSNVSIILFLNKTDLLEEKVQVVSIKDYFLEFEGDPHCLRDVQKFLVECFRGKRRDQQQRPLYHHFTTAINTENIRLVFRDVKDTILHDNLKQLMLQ

[2] = molecular target: T2, Gα13 (Mus musculus, UniProt P27601); assay: ITC
T2 chain: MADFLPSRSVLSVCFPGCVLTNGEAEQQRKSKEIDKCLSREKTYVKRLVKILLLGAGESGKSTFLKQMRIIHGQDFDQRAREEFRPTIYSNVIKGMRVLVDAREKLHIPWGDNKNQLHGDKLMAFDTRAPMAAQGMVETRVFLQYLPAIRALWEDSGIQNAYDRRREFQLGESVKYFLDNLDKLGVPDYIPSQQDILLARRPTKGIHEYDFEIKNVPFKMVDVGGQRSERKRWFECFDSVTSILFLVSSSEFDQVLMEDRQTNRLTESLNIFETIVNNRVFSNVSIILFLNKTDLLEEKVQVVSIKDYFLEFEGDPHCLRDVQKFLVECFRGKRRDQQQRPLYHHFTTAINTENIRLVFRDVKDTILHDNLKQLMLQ

binding result [1]: binds
B1: rgRGS domain of PDZRhoGEF/GTRAP48 (residues 307–508) (domain or fragment, rat, UniProt Q9ES67 307-508, looked up)
chain: LIIGPEEDYDPGYFNNESDIIFQDLEKLKSHPAYLVVFLRYILSQADPGPLLFYLCSEVYQQTNPKDSRSLGKDIWNIFLEKNAPLRVKIPEMLQAEIDLRLRNNEDPRNVLCEAQEAVMLEIQEQINDYRSKRTLGLGSLYGENDLLGLDGDPLRERQMAEKQLAALGDILSKYEEDRSAPMDFAVNTFMSHAGIRLRESR

Kd [2]: ~500 nM
B2: PDZRhoGEF rgRGS (protein)
chain: ESDIIFQDLEKLKSRPAHLGVFLRYIFSQADPSPLLFYLCAEVYQQASPKDSRSLGKDIWNIFLEKNAPLRVKIPEMLQAEIDSRLRNSEDARGVLCEAQEAAMPEIQEQIHDYRTKRTLGLGSLYGENDLLDLDGDPLRERQVAEKQLAALGDILSKYEEDRSAPMDFALNTYMSHAGIR
modifications: GDP·AlF-bound Gα13

Kd [2]: ~300 nM
B3: PDZRhoGEF rgRGS (protein)
chain: B2 chain
modifications: GTPγS-bound Gα13
